The target in the assay is human HER2 (ErbB2) receptor (human) (UniProt P04626). Briefly: cell-based or functional assay.

In turn, 4D5 Fab-MC-vc-PAB-MMAF, 1.5 MMAF/Ab yielded an IC50, cell proliferation assay (CellTiter-Glo), BT474 cells of 0.04 µg ADC/ml and an IC50, cell proliferation assay (CellTiter-Glo), SK-BR-3 cells of 0.02 µg ADC/ml.

On to murine monoclonal antibody 4D5, for which the maximum inhibition of cell proliferation of SK-BR-3 cells is 66%.

For the origin of these results see US20050238649A1.
